In PMC6685440 one finds fold binding against wild type data, which are given here for two molecules.

Changes are numbered by the printed parent chain. Names and notes keep the numbering of the source.

The assay deals with Heavy meromyosin (HMM). Briefly: far-Western, overlay or dot blot.

B1: GST-tagged NH2-terminal region of slow myosin binding protein-C (Pro/Ala-rich motif, Ig C1 and M-motif), Y247H (domain or fragment)
chain: MPEPTKKEENEVPAPAPPPEEPSKEKEAGTTPAKDEEEVSPPSALPPGLGSRALERKDSDWTLVETPPGEEQAKQNANSQLSILFIEKPQGGTVKVGEDITFIAKVKAEDLLRKPTIKWFKGKWMDLASKAGKHLQLKETFERHSRVYTFEMQIIKAKDNFAGNYRCEVTYKDKFDSCSFDLEVHESTGTTPNIDIRSAFKRSGEGQEDAGELDFSGLLKRREVKQQEEEPQVDVWELLKNAKPSEHEKIAFQYGITDLRGMLKRLKRMRREEKKSAAFAKILD
Take B1: the fold binding against wild type was found to be 2 fold.

B2: GST-tagged NH2-terminal region of slow myosin binding protein-C (Pro/Ala-rich motif, Ig C1 and M-motif), E248K (domain or fragment)
chain: B1 chain with H247Y, E248K
B2 returned a fold binding against wild type of 3.5 fold.
